Here are results for three molecules from paper doi:10.1101/2023.09.20.558697.

Read-outs that look alike come from different tables or passages of the source.

What all share (assay): EMSA
Data set [1] has as its target T1, RokL6-His6 (Streptomyces coelicolor A3(2) M145, UniProt Q9L112 1-399).
T1 sequence: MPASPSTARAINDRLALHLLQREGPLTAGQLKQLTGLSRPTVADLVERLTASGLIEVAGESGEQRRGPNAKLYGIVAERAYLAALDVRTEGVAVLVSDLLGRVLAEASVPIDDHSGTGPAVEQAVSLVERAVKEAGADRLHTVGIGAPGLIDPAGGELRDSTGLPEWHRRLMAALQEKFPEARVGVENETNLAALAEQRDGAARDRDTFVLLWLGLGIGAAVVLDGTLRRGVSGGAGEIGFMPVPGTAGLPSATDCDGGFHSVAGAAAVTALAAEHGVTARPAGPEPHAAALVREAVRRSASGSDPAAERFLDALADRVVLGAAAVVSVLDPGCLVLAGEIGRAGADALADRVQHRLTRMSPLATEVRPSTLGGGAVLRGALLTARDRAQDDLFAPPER

In data set [2] the target is T1, RokL6-His6. This is another data set of the same source.
Data set [3] concerns the target T1, RokL6-His6. The source holds these as a separate data set.

B1: hrdB-P (dsDNA)
DNA 1: CGGCCCGCCCGCACCGTCGGCCCATTCCCAAGCCGGTGGTCGGCCCCTGTCCGCCGTGGA
DNA 2: TCCACGGCGGACAGGGGCCGACCACCGGCTTGGGAATGGGCCGACGGTGCGGGCGGGCCG
On to B1, for which, in the data set with RokL6-His6 [1], the binding result is recorded as “no binding”.

B2: RokL6-BS (dsDNA)
DNA 1: CGCACCGGTAATCCACTATCTATCAGGCAGGCTCCCTGATAGTTTACGCCGCGGATTGAC
DNA 2: GTCAATCCGCGGCGTAAACTATCAGGGAGCCTGCCTGATAGATAGTGGATTACCGGTGCG
As for B2, in the data set with RokL6-His6 [2], the binding result is “binds”.

B3: RokL6-M3 (dsDNA)
DNA 1: CGCACCGGTAATCCACTATCGAATTCGCAGGCTCCGGATCCGTTTACGCCGCGGATTGAC
DNA 2: GTCAATCCGCGGCGTAAACGGATCCGGAGCCTGCGAATTCGATAGTGGATTACCGGTGCG
For the molecule B3, the binding result with RokL6-His6 [3] is recorded as “no binding”.
